Substrate in data set [1]: C[C@@H](O)C(=O)O
The experiment in a line: purified protein. In kind it is biochemical, Lactiplantibacillus plantarum. As to conditions: PBS pH 7.4, 35°C, 2.13 µM enzyme, racemization to L-lactate.

Substrate in data set [2]: C[C@H](O)C(=O)O
Briefly: purified protein. Type of data set: biochemical, Lactiplantibacillus plantarum. As to conditions: PBS pH 7.4, 35°C, 2.13 µM enzyme, racemization to D-lactate.

For 1 protein, Km and kcat results are on record in PMC11796402, “Overcoming barriers for investigating nickel-pincer nucleotide cofactor-related enzymes” (mBio, 2024).

In general, Km refers to the substrate concentration at which the rate is half of its maximum. In general, kcat refers to the maximal rate divided by the concentration of active sites.

B1: LarALp (Lactiplantibacillus plantarum WCFS1) (protein)
chain: VAIDLPYDKRTITAQIDDENYAGKLVSQAATYHNKLSEQETVEKSLDNPIGSDKLEELARGKHNIVIISSDHTRPVPSHIITPILLRRLRSVAPDARIRILVATGFHRPSTHEELVNKYGEDIVNNEEIVMHVSTDDSSMVKIGQLPSGGDCIINKVAAEADLLISEGFIESHFFAGFSGGRKSVLPGIASYKTIMANHSGEFINSPKARTGNLMHNSIHKDMVYAARTAKLAFIINVVLDEDKKIIGSFAGDMEAAHKVGCDFVKELSSVPAIDCDIAISTNGGYPLDQNIYQAVKGMTAAEATNKEGGTIIMVAGARDGHGGEGFYHNLADVDDPKEFLDQAINTPRLKTIPDQWTAQIFARILVHHHVIFVSDLVDPDLITNMHMELAKTLDEAMEKAYAREGQAAKVTVIPDGLGVIVK
notes: co-expressed with L. plantarum LarB, LarC, LarE in E. coli BL21(DE3) (Duet, pAT035/pAT038)
Take B1: in “purified protein [1]”, the Km worked out at 23 ± 12 mM and the kcat is 185 ± 12 s⁻¹. In addition, in “purified protein [2]”, the Km is listed as 32 ± 10 mM and the kcat was determined as 179 ± 25 s⁻¹.
